According to publication PMC2886027:

Target: T1, DraTopIB (Deinococcus radiodurans, UniProt Q9RWH8 1-346)
T1 sequence: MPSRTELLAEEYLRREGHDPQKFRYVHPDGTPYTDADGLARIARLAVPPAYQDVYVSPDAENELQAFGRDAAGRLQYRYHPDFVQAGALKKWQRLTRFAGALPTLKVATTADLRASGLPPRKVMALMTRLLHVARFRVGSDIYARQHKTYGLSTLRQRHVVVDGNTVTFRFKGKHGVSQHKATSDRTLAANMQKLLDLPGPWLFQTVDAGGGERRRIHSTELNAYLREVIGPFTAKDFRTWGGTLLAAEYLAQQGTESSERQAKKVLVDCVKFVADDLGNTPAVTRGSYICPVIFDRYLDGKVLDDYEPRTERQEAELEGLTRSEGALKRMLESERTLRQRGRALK
Experiment: crystal structure

B1: 12-bp duplex (dsDNA)
DNA 1: GAATAAGGGCGC
DNA 2: GCGCCCTTATTC
Does B1 bind?
Result: binds
